The target of this assay is T1, RAGE-Fc chimera protein (UniProt Q15109 23-342).
T1 construct: RAGE, recombinant Fc chimera BioTechne Cat# 1145-RG; As far as I recall the catalogue product is the human RAGE extracellular domain fused to human IgG1 Fc; source: bought: BioTechne
Nature of the assay: BLI; RAGE-Fc (15 μg/mL) immobilised on anti-IgG (AHC) biosensors; HMGB1 constructs 0–25 μM in solution; 200 s association/dissociation. As to conditions: both partners purified. (In general: In BLI a coated tip is dipped into the sample, and binding shifts an interference pattern.)

These results are taken from article PMC13486833, “Engineered HMGB1 construct with tandem Box B domains promotes tissue regeneration without potential for inflammation” (iScience, 2026).

T1 sequence (Q15109 23-342, change not shown): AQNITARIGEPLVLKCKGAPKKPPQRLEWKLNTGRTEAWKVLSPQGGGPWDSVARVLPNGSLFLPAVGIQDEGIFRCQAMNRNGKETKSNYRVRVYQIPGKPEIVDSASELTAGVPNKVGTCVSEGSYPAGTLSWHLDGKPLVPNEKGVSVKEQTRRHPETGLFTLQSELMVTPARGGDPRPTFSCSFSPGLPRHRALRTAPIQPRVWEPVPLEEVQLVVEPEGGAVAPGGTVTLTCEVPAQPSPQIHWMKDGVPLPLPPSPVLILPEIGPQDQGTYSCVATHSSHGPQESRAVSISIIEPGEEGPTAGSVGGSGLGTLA

B1: dBB12L (FR-HMGB1 89–174::89–174) (other)
chain: KDPNAPKRPPSAFFLFCSEYRPKIKGEHPGLSIGDVAKKLGEMWNNTAADDKQPYEKKAAKLKEKYEKDIAAYRAKGKPDAAKKGVKDPNAPKRPPSAFFLFCSEYRPKIKGEHPGLSIGDVAKKLGEMWNNTAADDKQPYEKKAAKLKEKYEKDIAAYRAKGKPDAAKKGV
modifications: fully reduced Cys105 (printed numbering) in both copies; printed n = entry n+1 (C22/C44/C105 = C23/C45/C106 in P09429); direct tandem fusion, with native flanks acting as the linker
In general, Kd refers to the concentration at which binding is half-saturated. The term koff denotes a measure of how fast the partners let go of each other. A high value points to a short-lived complex. As to B1, the affinity, expressed as Kd, was 5.5 µM and the koff was determined as 0.206 s⁻¹.
